Data taken from the supplement of paper PMC11811203.

B1: THAP1; numbered along this chain (parent)
chain: MVQSCSAYGCKNRYDKDKPVSFHKFPLTRPSLCKEWEAAVRRKNFKPTKYSSICSEHFTPDCFKRECNNKLLKENAVPTIFLCTEPHDKKEDLLEPQEQLPPPPLPPPVSQVDAAIGLLMPPLQTPVNLSVFCDHNYTVEDTMHQRKRIHQLEQQVEKLRKKLKTAQQRCRRQERQLEKLKEVVHFQKEKDDVSERGYVILPNDYFEIVEVPA

Variants of: B1
Assay: THAP1 transcriptional activity (GFP+/GFP- enrichment relative to wild-type constructs) (ratio to WT); higher = more THAP1 activity (PSMB5 reporter activation)
Details: with PSMB5 promoter-GFP reporter
Description: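 Deep mutational scan of human THAP1. Site-saturation single amino acid variant library (residues 2-213) was expressed by lentivirus at MOI ~0.3 in THAP1-knockout HEK-293T cells carrying an endogenous PSMB5 promoter-GFP knock-in reporter. Five days post-transduction, BFP+ cells were FACS-sorted into GFP dim and GFP bright populations and variants were counted by Illumina sequencing. Activity is the GFP-bright/GFP-dim read fold change, mean of 2 replicates, divided by the mean fold change of wild-type (synonymous) constructs in the same screen pool; WT = 1.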

THAP1 transcriptional activity, by site and new letter:
F22: S 0.0454; T 0.126; V 0.115; W 0.125; Y 0.288
H23: A 0.116; C 0.0806; D 0.117; E 0.123; F 0.0843; G 0.088; I 0.0266; K 0.125; L 0.0839; M 0.0825; N 0.0799; P 0.161; Q 0.0718; R 0.084; S 0.127; T 0.0534; V 0.0823; W 0.0807; Y 0.179
K24: A 0.122; C 0.146; D 0.116; E 0.138; F 0.1; G 0.13; H 0.345; I 0.0809; L 0.156; M 0.118; N 0.0904; P 0.125; Q 0.0996; R 1.73; S 0.088; T 0.109; V 0.121; W 0.156; Y 0.11
F25: A 0.123; C 0.125; D 0.123; E 0.148; G 0.182; H 0.115; I 0.145; K 0.0509; L 0.117; M 0.131; N 0.108; P 0.105; Q 0.0935; R 0.106; S 0.0861; T 0.0714; V 0.0907; W 0.156; Y 0.203
P26: A 0.13; C 0.106; D 0.0858; E 0.157; F 0.0724; G 0.0891; H 0.0688; I 0.178; K 0.155; L 0.104; N 0.147; Q 0.222; R 0.098; S 0.0994; T 0.0945; V 0.127; W 0.0853; Y 0.208
L27: A 0.142; C 0.14; D 0.111; E 0.0928; F 0.503; G 0.0873; H 0.0857; I 0.729; K 0.111; M 0.41; N 0.0759; P 0.103; Q 0.235; R 0.23; S 0.183; T 0.31; V 0.488; W 0.263; Y 0.304
T28: A 0.664; C 0.495; D 0.202; E 0.172; F 0.194; G 0.843; H 0.391; I 0.198; K 1.42; L 0.612; M 0.3; N 0.889; P 0.103; Q 0.651; R 1.03; S 3.39; V 0.231; W 0.188; Y 0.137
R29: A 0.122; C 0.137; D 0.187; E 0.127; F 0.154; G 0.131; H 0.211; I 0.134; K 0.357; L 0.0833; M 0.162; N 0.536; P 0.135; Q 0.36; S 0.134; T 0.12; V 0.177; W 0.129; Y 0.118
P30: A 0.476; C 0.123; D 0.254; E 0.399; F 0.129; G 0.282; H 0.384; I 0.278; K 0.428; L 0.261; M 0.245; N 0.33; Q 0.583; R 0.396; S 0.33; T 0.349; V 0.418; W 0.0759; Y 0.21
S31: A 1.03; C 0.206; D 1.43; E 1.31; F 0.363; G 1.17; H 0.565; I 0.728; K 1.13; L 1.21; M 0.6
